We go through 68 sequences from the domain aggregation screens of Martell et al. (2025).

The nature of this data set: soluble fraction after stress (log2 fold change); higher = more stays soluble; pooled small domains, quantitative proteomics. Particulars: stress: 50 degC. The method, boiled down: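 Pooled custom libraries of small protein domains were each held under stress at 50°C. The read-out, high-throughput quantitative proteomics, tracked how much of each protein stayed soluble. This is reported as a base-two log fold change used to indicate aggregation propensity. Higher values mean more protein remains in solution.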
“HMDMQNIQKGLSAIEPGRTFSREEYYAAIQNGSEMLLKEDALAYSLRKSLSDGDIVRVSWNQYAIP”: the “soluble fraction (log2)” value is -0.116.
Turning to “HMREEQELFRKLLEVNGIGPKVAAGMLAGGRPEDVVSAIRREDVAWLTKLPGIGRKTAQRIVLDLKDKLD”, the “soluble fraction (log2)” value was -0.0754.
As to “HMIPKDKQAWIALTYIYGVGRTTSMEILKKAQVGEEIRMKDLTEEEVTRIRNIIDKEYEVEGDLRRN”, the “soluble fraction (log2)” value is -0.292.
For the sequence “HMGDITIPDLQGMSFDQAREKLKALGLSIGKISYTSDTSKDDGVVISQGLQAGGKASKGATVDITINET”, the “soluble fraction (log2)” value came to 0.0588.
Next, “HMPTVLKQGSTGQEVKELQQALSKLGYRVTVTGEFDTATHYGVVRFQRKHRLTIDGIVGPQTLSKIRAHQK”: -2.86; “HMPPQPATQNTKAQVMQLAREKELMAGEGRGANVEALEKFANEHGISLRGMTEEQAEQLVKLLMEYTP”: -0.258; “HMIADPLVINKLMDSMALAINDYNPDSVEPVLDELRQYFSENQLRELSKAMDDFDFDEALNALTLLRT”: -0.382.
“HMSIGKEATPDDIVPNIRVYHATFGYGNVIKTDGVSHDKKAVVNFDSVGEKTLLLKFAKLILPY”: the “soluble fraction (log2)” value was 0.138.
The figure for “HMGDDVRKNILDVLSKFERVDITDLDSLELVRFYLEIEDIFDIEIKENDFYRLKSVDSIVDYIRNKSFF” is -1.2; for “HMPAAFALLTDREREIAALIAQRLTNREIAEKLYLSEGSVKQYVNQLYAKLGIEGDTRTKRRRLAEQAK” it is 0.11.
Next, “HMAENMNAALRVSSLINQIGTVNAKAKDRIESARKAYDALSEAQKAYVANLTTLETAETSLSKL”: 0.179; “HMDKINQEAIEDEAGLWLAKIDGRQLAQEEVRELIAWMRRSDFHREYLITLARQWDGMAALNKLATLFP”: -0.976; “HMTVEVFQSLVQTFREMSPRKAASILEELKRDLAVEILLHMPEDGVAAILARMDPARAARLTEQLALEKD”: -0.979.
Regarding “HMSNLNHSFQYKKNIGRKISLTYLGRDNESISKIYELIDSNDSGILVKNKNVEIFIHYEKIVSAKIKVS”, the “soluble fraction (log2)” value was -0.943.
On to “HMNQIFAPMPGLVLEVKLSEGDVVAEGESAIILEAMKMENIIKSPINGIVKKVHVKKGQTIEKNTLIISFK”, for which the “soluble fraction (log2)” value is -1.15.
As to “HMEITTLTGVLGAGRLDSALAAALPQYSRARIQALISDAALRINGQVVADAGSKKMSGQTFELNIPAPVP”, the “soluble fraction (log2)” value was -0.31.
With “HMILQTLSERVTETLRDWILHGHFKPGDKIEEVPIAERMGVSRTPVRAAFATLTNEGLIDHQPNRGYQVRV”, the “soluble fraction (log2)” value is -0.325.
For the sequence “HMDSIDVQQKKLLTDIELGNIEGIKLFLKRHNNTINFLTIKGFHPLVYAVRNNNMEIVNLFLTT”, the “soluble fraction (log2)” value came out at 0.172.
Next, “HMKRQATLQIGSKRFGMDDLYFKFTVPFEDSEKLGTATIEAYNLSPATRNSIKKGMPIILNAGYEGDI”: -0.225.
As to “HMNEYLPEAVQKLLEVMEYDIPYTSNELMERLGLKAKEGFRRNYLHPAMEMKLIQMTIPDKPNSRNQRYLR”, the “soluble fraction (log2)” value is -2.11.
The figure for “HMAGNNTATKEIAELLIAKGADVNAMNLSPPGREIGGMTPLDMAILGNRNEIADLLRKHGGRTQKELKAE” is 0.356; for “HMKTLPADPTVKNFSYTVVDGEIYYRENSIMTQIELSDNAKGRVAGMVELRQIVNELIDQQLND” it is -0.896.
As for “HMGVEKHLRITGTSTVSWKDAIVQAVAEASKTIDYLSNVKIIEQRARIDGKKLVEYFVDLDLSFVID”, the “soluble fraction (log2)” value is -0.0917.
As to “HMGQVAKPPLKELGADPVTGKPMVLKDGRFGPYVTDGEYNASLRKDDDIETIGVERAAELLQIRREKGP”, the “soluble fraction (log2)” value is -0.081.
Turning to “HMIMTEKEKKLLNRYIMHDTIHKLYHEQNKSMRWIADNLGINFRTVQKYLDMDSGEFQKYSESISNR”, the “soluble fraction (log2)” value was -0.48.
On to “HMALQDKYAELLTAANTMGVTNLAVAEKDGTLHVSGTAKSTADYDSLWALYDKIDPNMASGDLMMNI”, for which the “soluble fraction (log2)” value turned out to be 0.0408.
The figure for “HMLTLSGPEHAVVRALWPEPELDFDVLIRKTGLPSAQLMTLAMQLEMKKIIRRLPGRRLALMDDIRR” is -1.85; for “HMFSQDQIFLRSGEKIDARVIEVTPEFIKYKSKANPEGPLYSKKITDVLLITYANGTTEVYE” it is -0.00684.
Next, “HMEEEPALLRDLLAKTLEFGLIPQLSHHPALADRTQQLASAVRAAGSASALRNAAASLKSLWIDVDQ”: -0.0318; “HMATRAEQMAKTHQAILDTARELFLRNGYDATSTRDIANAIGITQPALYHHFKDKEVIFLAVI”: -0.172.
For the sequence “HMSSVEEILQTLGGRIRTQRLAQGISQQVLADRAGLSLGAVRQLEGSGQSGLDTLVRVLFVLGIVDEL”, the “soluble fraction (log2)” value is -2.21.
The figure for “HMLDPYNVLGVPRDAGMDEIKKAYRKLSRTYHPDANIDNPNKAQAEEKFKQIQEAYQQIVKERTE” is -0.384; for “HMILKQTHIVQELTGPIRLQEYGVGIFQQISTKSALKKALKKNQITVDGVVGSTATFIKGGEIIIYHVTE” it is -2.75; for “HMKNFAPVWGEEGAEFGKEVDTGFRLRIVEKEKDVNDLFEVIQKHTIQSQWKPGSTGTESIYKRI” it is 0.37.
As for “HMGASALTEREREVLRLLEGGGSDKRIARQLAISEHGVRYHLKSIYKKLGVHDRVSAIAAGRRLAS”, the “soluble fraction (log2)” value is -0.21.
As for “HMVINVKEILERIKLVKGFHTQIEIARFLGVSKGTISNWLARNSVDFPLVISKLDGVDLNWLFTGIGMPQ”, the “soluble fraction (log2)” value was -3.18.
With “HMGQAEEVRYSTFLDEVRNGRIEQVVLQGEHIIGTRKDKTVFSVFNPETDYTALIGTLSKSGVTIEGRP”, the “soluble fraction (log2)” value was 0.081.
For “HMVISNDEFEDYLNRATEQLVSELSSGKNPRDAVHDLALTFADQHNKSYDAYQRMADSLEARMHTL”, the “soluble fraction (log2)” value was determined as 0.0885.
In the case of “HMSNYIVELSSSEKIDDIDNNNNLINSFFSKSDSQWEYKLVFKNKNEMDVFVKKISTNNKIISYKTSS”, the “soluble fraction (log2)” value came out at 0.149.
As for “HMNARSTSYSDFIARVDKDEVASVRLDGETVTYQAADGTTYTTVKPESDPIAERLIAKGIEVNVVRQ”, the “soluble fraction (log2)” value is -0.49.
Next, “HMGNLASRVAEQLLDKMRGDSLVPGTRLPSEIAMAKHFGVSRTVMREAIARLKADGLLETRRGSGAFVLAT”: -0.664.
Next, “HMVDKDFKPLYASLERLDSTSIIEILDSNRIDYRIDQRSGALLVDADQIHQARLSLASAGMPA”: -0.116; “HMDGRIRFRHAALHDPDVAARLHDYLTTSLPGVRSARVNSQTGSLLLEYDPEVLDRSTLLDLAARAESLL”: -0.219.
For the sequence “HMDRVMPVPEALIGMRFDIAVSRMLGVSRSQAAAYIDRGQVSIAGRGSQRSAQKSEKLVQGDSIEVAIA”, the “soluble fraction (log2)” value was -0.318.
In the case of “HMTLTEQQITDNYKELRKIINDTFSGLRLDKLNHMYDDLEDRMVVAPASSVEHYHNSKVGGYVEHILHVI”, the “soluble fraction (log2)” value is -0.187.
Turning to “HMAVPLVRGTVTSSVGTVLLLSVGERDFFLSEGEEKDGVLLQSLSEKSAVVVVSGRAYTLSL”, the “soluble fraction (log2)” value was -0.408.
Turning to “HMEQKISVPALVGRDIEEILADTEVTGNFTIKEADKRVASNRPVGEVLEQDPGTGESAVKGTIITVTVSAG”, the “soluble fraction (log2)” value was 0.0124.
Next, “HMDEAEELYQAVQALKPKYREVILLHYYQGLRVGEIAAILRAPQSTVSIRLRRARQMLNRMLG”: -0.548; “HMQISDESSIAKIADEVISEFPSQVSEFRSGKEKVLQFLIGQVMKKTKGKANPQITAKILREKLS”: 0.119.
As to “HMPIRMLQVQKTNTGYLNVRDTPSVSGALIGKVFPGDMLSSTEERDGWFLVAVPQGGTGWVSGDYVKTTS”, the “soluble fraction (log2)” value was -0.0387.
Take “HMEHTPHGVALLRTLMDQYGLKAADLANELGSKSNVSNILNGRRALTVSHIKMLAERFNLPADAFI”: the “soluble fraction (log2)” value is -0.914.
Regarding “HMEIPTEEILKQKLYYSISEVASWFKVNTSLLRYWENEFDILQPRKTRKGDRLFRVEDIKNLQLIYLL”, the “soluble fraction (log2)” value was determined as 0.107.
Next, “HMGTRYVEFVIPGTGNHEVRIVSSNGSRQNVEVAGTYPGGARLRTKVDNGVRRVSFYVDNRLVEEKQ”: 0.0416.
The figure for “HMNYNEKGEYTRTLTSGSETAVMTYRNFGETLDVALFKNGVQTDSLRLIKSEPGVLYRQSNGQFEKI” is 0.0586.
Consider “HMHMELHEKIRLARELNKWSQEEVAEKLEMSPSGYAKIERGETALNIPRLEQIAEIFNIDIWELVKA”, for which the “soluble fraction (log2)” value was -0.573.
In the case of “HMGNTTEVLVATQDVKANTKIKESMFTTERVDTASLPDNYLSADSAKDVVGYYTYIGFTKGSVISKSNIAT”, the “soluble fraction (log2)” value came to 0.0925.
With “HMLDGFEVGMTVMRKPGTETGFTGWPPFADKDEFPVIERIDTSDSTLLLRFNDTSWWINASLVEPSDV”, the “soluble fraction (log2)” value was -1.33.
For the sequence “HMAGSTAASKHALALLNTARHSIRDGNLTSAAAEIKQALATSQEQIVITEARSLMTAMEARATTRRATVLQ”, the “soluble fraction (log2)” value is -0.168.
The figure for “HMLPSMENWLGELSFWQTPWWERRDFSTFDNIAQSKEELDEFMSRDDNGAILERMQDPINTIEAE” is -0.46; for “HMDYGTATASAILYLEKIDPENPYLLLAKDTITTNPKMSVNFALKGIIESKKGEKEENLNKALEIMSSL” it is 0.049.
Next, “HMLPDYLIELKKKADSGDAVSQNDIGNIYLYGLPRVNIYPDEKNIGIGIDYLYKAAWQDQVNAMTTI”: -0.0456; “HMPNGEAYQRFTYENDILEGRFEEWDSLGTDIVKGDYTAGVRHKKWLYYDSEGRRDKFVFLDMDSI”: 0.0763; “HMGPRVSAGPGRHRVQPGDTLDDIAARYRVSSRDLMLVNGLRNANHVEAGQTLKLPSNAVIA”: 0.28.
Consider “HMNQEIELLLREPDFTSAARLAMAINERFTNSARAIDPTSVKVRMPEGLDQASVDFVARLEDIEMSPDT”, for which the “soluble fraction (log2)” value was -0.0281.
Regarding “HMFTDAEIKQFAAAAVEVTKIQQDSTISAADKQPKMLAVVQSSGLPPEKFNQIGQAAAADPALQQRIQA”, the “soluble fraction (log2)” value was 0.156.
Take “HMTINPFSTLAVRELEILHYLLNGHRTKEIATNLGLKMNTVSTIKSNIFEKVKADSFTHLLQLAHVHQIS”: the “soluble fraction (log2)” value is -0.888.
In the case of “HMKAAQDQDQAATLLQKATGVNQDQAKLAATVLFKEQSVTPIRQAIASGDYYQAYQDAKSLQQQ”, the “soluble fraction (log2)” value is -0.144.
Next, “HMNVRRSRTHEKVTTYQGYDIFINKEPNQRGMFTSAPMRGDNEYSNLRGEGKSKQDAVNMTKEKIDEIAA”: 0.403.
